Experiment [1] addresses T1, human TRPV6b expressed in LnCaP cells (transfected with pCAGS-IRES-hTRPV6b) (human), Q9H1D0.
T1 chain: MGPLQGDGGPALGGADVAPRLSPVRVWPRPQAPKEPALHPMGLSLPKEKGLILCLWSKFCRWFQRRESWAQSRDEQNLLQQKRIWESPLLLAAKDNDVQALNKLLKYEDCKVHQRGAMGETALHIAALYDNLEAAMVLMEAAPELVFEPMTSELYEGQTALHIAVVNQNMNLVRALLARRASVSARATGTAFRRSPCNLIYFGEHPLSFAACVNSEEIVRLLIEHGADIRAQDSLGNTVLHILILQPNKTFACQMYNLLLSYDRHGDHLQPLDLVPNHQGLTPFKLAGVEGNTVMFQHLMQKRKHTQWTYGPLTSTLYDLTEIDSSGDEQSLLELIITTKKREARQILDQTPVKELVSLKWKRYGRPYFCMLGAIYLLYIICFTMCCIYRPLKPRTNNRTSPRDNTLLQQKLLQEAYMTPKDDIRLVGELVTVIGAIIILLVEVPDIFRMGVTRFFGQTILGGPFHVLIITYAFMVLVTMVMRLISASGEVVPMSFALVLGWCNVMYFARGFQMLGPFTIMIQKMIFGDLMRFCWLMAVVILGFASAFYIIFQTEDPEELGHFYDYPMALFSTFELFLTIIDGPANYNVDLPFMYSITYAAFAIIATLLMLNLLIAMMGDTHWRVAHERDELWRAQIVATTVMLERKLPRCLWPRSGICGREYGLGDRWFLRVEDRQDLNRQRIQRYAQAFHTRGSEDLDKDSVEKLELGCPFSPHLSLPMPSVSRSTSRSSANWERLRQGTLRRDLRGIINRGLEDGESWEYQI

Experiment [2] has as its target T1, human TRPV6b expressed in LnCaP cells …. As to the kind of experiment: cell-based or functional assay.

Take EGKLSSNDTEGGLCKEFLHPSKVDLPR (modifications not checked) [SorC27]: the Kd in experiment [1] is 140 nM. In addition, the inhibition constant of calcium current (whole-cell patch clamp) in experiment [2] is 100 nM.

Molecule KEFLHPSKVDLPR (modifications not checked) [SorC13] gave an equilibrium dissociation constant (Kd) in experiment [1] of 100 nM. Also, in experiment [2], the inhibition constant of calcium current (whole-cell patch clamp) is 100 nM.

Source of the values: patent US20110071089A1.
